For orientation: stoichiometry N means a count of units in the complex or per binding partner.

The source of these data is paper doi:10.1101/2025.03.12.642685.

Where “and” joins values, the source holds several entries; their conditions need not be identical. Equal values may be shown once.

For assay [1], the target named is PorK (P. gingivalis (endogenous in P. gingivalis W50 EK18)). Kind of assay: cryo-EM structure.
Assay [2] has as its target PorN (P. gingivalis (endogenous in P. gingivalis W50 EK18)). As to the kind of experiment: cryo-EM structure.

PorK (natural protein): the stoichiometry N in assay [1] is 31 to 35 (2×) and 33.
Take PorN (natural protein): the stoichiometry N in assay [2] was 31 to 35 (2×) and 33.
